Results: the DeepSol protein solubility set

Test: soluble on expression in E. coli; label from the status in PepcDB or PDB records

Row | Sequence | soluble on expression in E. coli
1 | MGSDKIHHHHHHMSIDNVSGTSSNTGNVNGSKRAAGSGATETGQSVKGSSNLGKDEFLKLLVAQLKNQDPMSPQQNGEFIAQLAQFSTVEGVQSLNKSMESILSNYQSSQALQASSLVGRKVIVATDKSVVDTKDTFKASLNLPVSSSNVWVNVYDDKGTVVNRINLGQQAAGSVSFMWDGKDSSGNIMPPGTYKFEAQTSIDGKTYGLQTYLPANVDSVTLGQNGGELMLNLAGLGSIALSKVQIIGQ | not soluble
2 | GMFAGSIPMYIRVVSITAQSKLQFDMTVTYFENVWSPKVISLGAISAEFVQSNENSGMYIIHYPDKQTAISVFDKIKPEVDEVRTQNRIQITEGKRLFRVD | soluble
3 | MGHHHHHHSHMPPHPAIFFYCLLRQGLTMLPRLVLNFWAQAVHLPRPPRVLGLQAGGTAPGQKKLFLTSHFPPASPLPLCFSLQQNFKKHSPRSPPGILGSLYPGFCSPIATSPFAKGTRGLRVVGSSGRLSASS | not soluble
4 | KEQILSSEQLARKMMLELGDKKQEHLVAIYMDTQNRIIEQRTIFIGTVRRSVAEPREILHYACKNMATSLIIIHNHPSGSPKPSESDLSFTKKIKRSCDHLGIVCLDHIIVGKNKYYSFREEADIL | soluble
5 | MDENALRFASYWRNSLADAESGKGCFERKDAQNFTHWHGIAAGRLDEAIVNKFFKGEKDDVETVNVILRPKVYFRLLQHGKDRSAGTPDIVTPIVTPALLSREGFLYPTPATSIPRDLLEPLPKGAFSIGEIGQYDKYKTTHTDPTHVMWTRP | not soluble
6 | MHHHHHHMGLNTAIATRVNGTPPPEVPIADIELGSLDFWALDDDVRDGAFATLRREAPISFWPTIELPGFVAGNGHWALTKYDDVFYASRHPDIFSSYPNITINDQTPELAEYFGSMIVLDDPRHQRLRSIVSRAFTPKVVARIEAAVRDRAHRLVSSMIANNPDRQADLVSELAGPLPLQIICDMMGIPKADHQRIFHWTNVILGFGDPDLATDFDEFMQVSADIGAYATALAEDRRVNHHDDLTSSLVEAEVDGERLSSREIASFFILLVVAGNETTRNAITHGVLALSRYPEQRDRWWSDFDGLAPTAVEEIVRWASPVVYMRRTLTQDIELRGTKMAAGDKVSLWYCSANRDESKFADPWTFDLARNPNPHLGFGGGGAHFCLGANLARREIRVAFDELRRQMPDVVATEEPARLLSQFIHGIKTLPVTWS | soluble
7 | MGSDKIHHHHHHMIDHLIATDIGGRGSEKLYILYKSKDPDYFSKSLDLLIKSDEVLIVSDFPIPPTMTPETDGPPGALALALGLAELGKKATILTQEIVKEGLRDFYPRITTKFPNIRKFSCLVSIETPGRNFKGEYLSFSGLKISVRPYDDLFLRALELGIPTIGIGDGGNEIGMGNLGLNDERFSVVRVNELIIAGVSNWGAYGLVAGLSMRVGQNLLRDYNEEDVVKSLVDVGLIDGITKKREPTVDGLPLSLHGKILELLIEIVNIKTP | not soluble
8 | MTTLTAQQIACVYAWLAQLFSRELDDEQLTQIASAQMAEWFSLLKSEPPLTAAVNELENRIATLTVRDDARLELAADFCGLFLMTDKQAALPYASAYKQDEQEIKRLLVEAGMETSGNFNEPADHLAIYLELLSHLHFSLGEGTVPARRIDSLRQKTLTALWQWLPEFVARCRQYDSFGFYAALSQLLLVLVECDHQNR | soluble
9 | MGSDKIHHHHHHMENVSSVTSDGSVADVHAERWQELLARLDADAPDIAEGTAAKLLATIPGYELVDAGPIRESSIRNTALIIRVINAGTEPKAEDLPEALRLADERIAQNVPLGSVLHGFRMSLGEILEHLVQLGPEYNIDPGRMLRWSTLMWAVNDAFSTRATRVYRDHEVATAIADSVRRSEWIGKAVSEGSELSELLWGAAMYDVPADTPLRALAATSPDHAKAETQIQKWTQRAGVRVLASVQPSVIVGIVIGEPKRNVDGPGFAVGLGRAEVLSKLADSYKDASLVLKAADNLKLNEVQRAQDLSWKLAIHASPRVTEILAQKYVKPLRESGEFAHEIVESLRAYVDNQMNIPAAARSIPVHVNTLRYRLRRFEELTGCYLEDTSTVIEVSWVLEVFGREL | not soluble
10 | MAEVITLSDDDDDVIPLTPRPPVVLKTSTTANHGNNSQATVHVSTGKNLNFDQIGIRRLSDVYNKNQPAFRGNEIPTGIRNSRPSLPATAILQNPQFLVQLAAKGLKRPFSSVHSTPAVVPSTSIQRTRNNQNAGNTPNIYKGHYMFEATESYEPSRRSSRYNTKKIEGKFMCSYNPTKCYKLCGSVVEVINHIWAHVIHDPPLPPIEKKESKDDGMFSCLLRNSDAAQLAENSALSLKRLQTCQFCNAVFRTVHLKTIHVVKCHMEQDHLDTTCNICELDFGNSIALNTHMKKHISGEAPYNCQKCKYRTSVRAFFYQHFIEKHSNETLLCPICLHHEDLRPNVRRSKHIFVREFVNHMRSHALGPQMRCHVCALTFTSRLLLEAHRTNDHTMLNSLWQVIERKSVHETEREHMSKRNKIGLLQRRFFETLEGRRINDEVACAGDKEREGFDLTTTGDTLFECECGFKSWNGNRTASHYHKCRRSINDIERKREIVRLGSDPKEELELFAVYPQPTNTEAETEEATLRKIHLERGDPLPILEDIVYQPIDDLPLLKMLSKNHDKSLEIMEKCTASAVTTED | not soluble
11 | MHEITLCQRALELIEQQASAYGAKRVTAVWIKIGAFSCVETSALSFCFDLVCRGTIAEGCKLHLEEQEAECWCEHCQQYVTLLTHRVRRCPQCHSDTLRIVADDGLQIRRIEIDETED | not soluble
12 | TSGTLYLVGTPIGNLDDMTFRAIATLKNVDLIAAEDTRHTGKLLKHFQIATPQISYHDHNRHQRQAQLLEKLRSGLNIALVSDAGLPGISDPGFELVASAIDTEITVVPIPGV | not soluble
13 | SPVTKCPRKVEPPWKGWDRKAQKNGLRHQVFAVNGDHYVGEWKGNLKHGKGTQVWKKSGAVYEGDWKFGKRDGYGSLSHPDPETGKLRRVYSGWWKGDKKSGYGIQFFGPKEYYEGEWCNNQRSGWGRMYYNNGDIYEGQWQNDKPEGEGMLRLKNGNRYEGIWERGMKNGHGRFFHLDHGQLFEGYWVDNVAKCGTMIDFGRDEAPEPTQFPIPKVEILDPDGVLKEALDKLMKPEEEEG | soluble
14 | MGFKCGIVGLPNVGKSTLFNALTKAGIEAANYPFCTIEPNTGVVPMPDPRLDALAEIVKPERILPTTMEFVDIAGLVAGASKGEGLGNKFLANIRETDAIGHVVRCFENDDIVHVAGKIDPLDDIDTINTELALADLDSCERAIQRLQKRAKGGDKEAKFELSVMEKILPVLENAGMIRSVGLDKEELQAIKSYNFLTLKPTMYIANVNEDGFENNPYLDRVREIAAKEGAVVVPVCAAIESEIAELDDEEKVEFLQDLGIEEPGLNRVIRAGYALLNLQTYFTAGVKEVRAWTVSVGATAPKAAAVIHTDFEKGFIRAEVIAYEDFIQFNGENGAKEAGKWRLEGKDYIVQDGDVMHFRFNV | soluble
15 | MASEDKFESVLSTRYCKNSPLVSILSETNKATLWRQLWIWLAEAEKELGLKQVTQDAIDEMKSNRDVFDWPFIRSEERKLKHDVMAHNHAFGKLCPTAAGIIHLGATSCFVQDNADLIAYRDSIDHILKRFATVIDRLAAFSLKNKEVVTVGRTHYQTASLVTVGKRGVLWAQELLMAFQSLSEFRDKMRFRGIKGATGTQDSFLTLFAGDESKVEALDELVTKKANFSNRFLITGQTYSRQQDSQLVFSLSLLGAAAKKVCTDIRVLQAFGELLEPFEKDQIGSSAMPYKKNPMKSERCCALSRKLINAPQEALTILADQGLERTLDDSAGRRMLIPDVLLTAEALLTTLQNIFEGLSVQTDNVKKIVEDEIAFLGLEKAMMMLTEEGVDRQQAHAVIRKTALEAKQLQATQKVDIRQTMADPFFDSVRDRVVGLVNNPINFTGRCVSQTESFIAKELKPTIDKYLDKSAGNVQLDV | soluble
